The source of these data is US20130280162A1 (IFOM FONDAZIONE ISTITUTO FIRC DI ONCOLOGIA MOLECOLARE, published 2013).

For one assay, the target named is T1, vitronectin (VN) (human, UniProt P04004 20-478).
T1 construct: also called immobilized VN
In words: plate assay: uPAR/mFc (5 nM) with increasing uPA on immobilized VN (FIG. 4C). How it is done: 96-well immuno plates (NUNC MaxiSorb, blackwell) were coated with pro-uPA or VN (100 μl, 10 nM) diluted in coating buffer (50 mM sodium carbonate, pH 9.6) at 4° C. ON. Plates were washed with wash buffer (phosphate buffered saline (PBS) containing 0.1% Tween-20 (PBS-T)) and non-specific binding sites blocked (0.15 ml/well) with blocking buffer (PBS containing 2% bovine serum albumin (BSA)) for 1-2 hour at RT. […] The binding was allowed to occur for 1-2 hours at RT and the plates washed three times with wash buffer. Bound uPAR/mFc was detected by sequential incubations with a biotinylated goat anti-mouse Fc antibody (Sigma) and Eu³⁺ labeled streptavidin (Perkin Elmer). Bound Eu³⁺ was quantified by dissociation-enhanced time-resolved fluorescence measurement using an Envision Xcite plate reader (Perkin Elmer) using the DELFIA protocol.
To test the activity of uPAR-lock as an antagonist of the uPAR:VN-interaction the author utilized a binding assay in which uPAR/mFc is allowed to bind immobilized VN in the presence of uPA (FIG. 4C). In this assay uPAR/mFc binds to immobilized VN with high affinity in an uPA-dependent manner. To test the activity of uPAR-lock the author conducted the experiment with a fixed concentration of uPAR/mFc (1 nM) and an excess of uPA (5 nM) mixed with increasing concentrations of uPAR-lock or uPA for comparison (FIG. 4D). […]

Assay [1] deals with T2, urokinase-type plasminogen activator (uPA) (human, UniProt P00749 21-431).
T2 construct: also called pro-uPA; immobilized uPA
In words: plate assay: increasing uPAR/mFc on immobilized uPA, anti-mouse Fc and Eu-streptavidin (FIG. 4A). How it is done: Immobilized uPA was incubated with increasing concentrations of uPAR tagged with a mouse Fc (uPAR/mFc). After washing bound uPAR/mFc was quantified using a biotinylated anti-mouse Fc antibody and Europium labeled streptavidin. Note that uPAR/mFc display specific high-affinity binding to immobilized uPA.
96-well immuno plates (NUNC MaxiSorb, blackwell) were coated with pro-uPA or VN (100 μl, 10 nM) diluted in coating buffer (50 mM sodium carbonate, pH 9.6) at 4° C. ON. Plates were washed with wash buffer (phosphate buffered saline (PBS) containing 0.1% Tween-20 (PBS-T)) and non-specific binding sites blocked (0.15 ml/well) with blocking buffer (PBS containing 2% bovine serum albumin (BSA)) for 1-2 hour at RT. After washing with PBS-T, wells were incubated with uPAR/mFc (1 nM) in the presence or absence of the agonists and antagonists to be tested prepared in dilution buffer (PBS containing 1% BSA). The binding was allowed to occur for 1-2 hours at RT and the plates washed three times with wash buffer. Bound uPAR/mFc was detected by sequential incubations with a biotinylated goat anti-mouse Fc antibody (Sigma) and Eu³⁺ labeled streptavidin (Perkin Elmer). Bound Eu³⁺ was quantified by dissociation-enhanced time-resolved fluorescence measurement using an Envision Xcite plate reader (Perkin Elmer) using the DELFIA protocol.

T1 sequence (P04004 20-478): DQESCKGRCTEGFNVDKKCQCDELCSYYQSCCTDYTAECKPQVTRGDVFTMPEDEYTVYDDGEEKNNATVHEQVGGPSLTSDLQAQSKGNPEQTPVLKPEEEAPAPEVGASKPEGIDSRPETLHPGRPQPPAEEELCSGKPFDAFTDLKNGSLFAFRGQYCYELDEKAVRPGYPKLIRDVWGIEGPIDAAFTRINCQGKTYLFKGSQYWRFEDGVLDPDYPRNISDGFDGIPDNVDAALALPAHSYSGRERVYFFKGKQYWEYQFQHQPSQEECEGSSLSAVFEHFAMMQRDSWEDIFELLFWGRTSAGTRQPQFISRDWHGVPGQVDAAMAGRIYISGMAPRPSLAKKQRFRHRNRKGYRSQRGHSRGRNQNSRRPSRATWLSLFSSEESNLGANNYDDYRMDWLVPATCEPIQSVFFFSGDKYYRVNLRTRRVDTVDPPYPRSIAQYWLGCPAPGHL

B1: uPAR/mFc (human uPAR tagged with a murine immunoglobulin heavy chain constant region) (Fc fusion)
chain: LRCMQCKTNGDCRVEECALGQDLCRTTIVRLWEEGEELELVEKSCTHSEKTNRTLSYRTGLKITSLTEVVCGLDLCNQGNSGRAVTYSRSRYLECISCGSSDMSCERGRHQSLQCRSPEEQCLDVVTHWIQEGEEGRPKDDRHLRGCGYLPGCPGSNGFHNNDTFHFLKCCNTTKCNEGPILELENLPQNGRQCYSCKGNSTHGCSSEETFLIDCRGPMNQCLVATGTHEPKNQSYMVRGCATASMCQHAHLGDAFSMNHIDVSCCTKSGCNHPDLDLEVLFQGPLEAGAG
notes: also called uPAR tagged with a mouse Fc; Fc-tagged uPAR; not shown: mouse immunoglobulin IgG1 heavy chain, amino acids 216-441 numbered according to Adetugbo 1978 (clone IRAVp968B035D); th
Consider B1, for which the binding result (with vitronectin (VN); in assay [1]) was “binds” each time.
